Measured values reported in PMC11237755.

Biological target: T1, TtdV-His6;TtdW-His6 (Salmonella enterica serovar Typhimurium IR715 (ATCC14028 NalR);Salmonella enterica serovar Typhimurium IR715 (ATCC14028 NalR)) (UniProt Q8ZLP8+Q8ZLP7)
T1 sequence 1: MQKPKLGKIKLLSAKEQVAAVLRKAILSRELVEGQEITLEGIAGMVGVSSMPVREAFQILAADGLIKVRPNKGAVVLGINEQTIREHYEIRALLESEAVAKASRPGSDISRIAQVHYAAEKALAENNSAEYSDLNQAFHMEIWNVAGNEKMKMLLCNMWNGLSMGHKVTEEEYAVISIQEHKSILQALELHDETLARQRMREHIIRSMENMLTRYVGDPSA
T1 sequence 2: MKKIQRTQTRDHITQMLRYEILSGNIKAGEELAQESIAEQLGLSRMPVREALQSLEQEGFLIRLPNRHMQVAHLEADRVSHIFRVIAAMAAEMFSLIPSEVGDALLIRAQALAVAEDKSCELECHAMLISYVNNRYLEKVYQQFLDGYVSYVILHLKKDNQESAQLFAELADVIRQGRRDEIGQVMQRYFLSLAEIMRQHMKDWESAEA
Test: EMSA
Settings: LightShift Chemiluminescent EMSA kit (binding buffer, salt and pH not given), 20 min room temperature; 20 fmol probe, 6% 0.5x TBE gel (TtdV/TtdW); 50 fmol …

Sequence: CGTATGCTGACCCGCTATGTTGGTGACCCTTCTGCCTGATCTTTTCGCCTGCGTGAGCATCGCAGGCGCTTCAACCAATTCTTCAATTCTATTAATCACGTCCAGTAACGATCTAACCACGATCTTGATGTAGATCCCACTCCTGCATCTTTCCTGAGAAACGATTTGACTTAGTTTTTGTATGGGAATAATTTCTCCCTGTCAACATTGGATACAATATCATATATCATTGATTGGATAATTATAAATATGGAACCCATTACCCTTACCTTATGTTTATTGGTGTTCGCCC (double strand) [Probe 4]
- binding: binds
